In the supplement of paper PMC9170038:

Tested on: MS2 coat protein
Experiment: apparent KD of MS2 coat protein, switch ON state; designed switch direction (-1 OFF switch, 1 ON switch): -1; higher = weaker reporter binding
Details: FMN input: 0 or 200 uM; Eterna round: R93 (includes R88 designs)
Procedure, shortened: (§1)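 Titration buffer: 100 mM Tris-HCl pH 7.5, 80 mM KCl, 4 mM MgCl2, without or with constant ligand. Designed RNA switches transcribed on-chip from Illumina sequencing clusters received SNAP-549-labelled MS2 coat protein in twofold steps from 0.7 or 1.5 nM to 3 µM. Apparent KD is the median per design of fits to normalised cluster binding curves.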

In order of rising “apparent KD of MS2 coat protein” value:
1. AAAGUGUGAGGAUAUGUGAAAGGACACGAAAGUGACAAAGAACAGAAGGUACAUGAGGAUCACCCAUGUAAAAA [milkweed 20]  27.4 nM
2. AAAGAUGGAGGAUAUACAUGAGGAUCACCCAUGUGGAAAAUAAAUUGGGAAAAAGAAAGUAGAAGGCCAAAAAA [Ex 3 May 41]  45.5 nM
3. AAAUUGUCAGGAUAUCGUAGAACUCUAAAAUAGAGGAGCUACGAGAAGGGACAUGAGGAUCACCCAUGUAAAAC [May 88]  56.2 nM
4. GAAAAGCAAGGAUAUACAUGAGGAUCACCCAUGUGGAAUGGCGUGACCUAAAGAAAAGGUAGAAGGUGCACGUG [Soangebi]  166 nM

Tested on: MS2 coat protein
Experiment: apparent KD of MS2 coat protein, switch OFF state (with FMN for OFF switches, without FMN for ON switches); designed switch direction (-1 OFF switch, 1 ON switch): -1; higher = weaker reporter binding
Details: FMN input: 0 or 200 uM; Eterna round: R93 (includes R88 designs)
Procedure, shortened: as §1

In order of rising “apparent KD of MS2 coat protein” value:
1. AAAGUGUGAGGAUAUGUGAAAGGACACGAAAGUGACAAAGAACAGAAGGUACAUGAGGAUCACCCAUGUAAAAA [milkweed 20]  23.5 nM
2. AAAUUGUCAGGAUAUCGUAGAACUCUAAAAUAGAGGAGCUACGAGAAGGGACAUGAGGAUCACCCAUGUAAAAC [May 88]  68.4 nM
3. AAAGAUGGAGGAUAUACAUGAGGAUCACCCAUGUGGAAAAUAAAUUGGGAAAAAGAAAGUAGAAGGCCAAAAAA [Ex 3 May 41]  94.7 nM
4. GAAAAGCAAGGAUAUACAUGAGGAUCACCCAUGUGGAAUGGCGUGACCUAAAGAAAAGGUAGAAGGUGCACGUG [Soangebi]  341 nM

Tested on: MS2 coat protein
Experiment: apparent KD of MS2 coat protein, switch ON state; designed switch direction (-1 OFF switch, 1 ON switch): 1; higher = weaker reporter binding
Details: FMN input: 0 or 200 uM; Eterna round: R93 (includes R88 designs)
Procedure, shortened: as §1

In order of falling “apparent KD of MS2 coat protein” value:
1. CAUCAACAUGAGGAUCACCCAUGUCAGUGAUGUCAAGGAUAUGGGAGACAUAAAAUUCUUCUAGAAGGUGAAAGAU [Orlaanar]  209 nM
2. AACAAUCUAUCUGAGGAUAUGUGUCGAAAGACAUGAGGAUCACCCAUGUAAAAACAUGGGAAGAUACAGAAGGCAGAUAGAUUGA [SS2: 1161]  203 nM
3. AAUCCAAAUAGUUAGGAUAUGGGAAUUAAGACAUGAGGAUCACCCAUGUAAUUAAAACAAGUUAACCAGAAGGGACAGGGUGAAA [JR_SS002_Sub207]  160 nM
4. AAGCAACAUGAGGAUCACCCAUGUAGCAGGGUCAGAGGAUAUUUGAUCUUGGUAAGGGUUAAAGAAGGUUGAUAAA [Ceralete]  159 nM
5. AAAAAACAUGAGGAUCACCCAUGUGCAAAAUUCGCAGGAUAUUCCUCAAUUAAAUGAAAGGAAGAAGGGUGACAAA [Nob's Hobby 30 - Jieux - Same State 1]  92.6 nM
6. CUGGACAUAGUAUAGGAUAUAUGAAUAGUUACAUGAGGAUCACCCAUGUGCAUUUAUAUGCGAACAUAGAAGGGUGGUAGUUAAG [Mat - Same state - Malcolm Mod - D141]  88.4 nM
7. AGAAAUAAAACACAGGAUAUGAAAAAGAAAACAUGAGGAUCACCCAUGUAAAAGAAAAAUAAAAAUCAGAAGGGUGAAAAUAAAG [Put G segment last in JL design (80%)]  59 nM
8. AAUAUAUUAAGUGAGGAUAUCAUAGGAAAAACAUGAGGAUCACCCAUGUGGGAAACCUGGUCGGGUGAGAAGGUGCUUAAUAUAU [Samwise Clockwise 32 - Jieux - Same State 2]  50.6 nM
9. CGUGAACAUGAGGAUCACCCAUGUGAAAAACAUAGAGGAUAUGUCACGUGAGUGUAAAAGACAGAAGGCUAUCGUG [Mod 3 of Round 1 starryjess' Mod pf Nando]  36.5 nM
10. AAAACCUGCGUCGAGGAUAUGUAGCCCACUACAUGAGGAUCACCCAUGUGGAUCUUACUGGGUCGACAGAAGGUGAAAGUUAGGC [Onlele]  36.3 nM
11. GAGAAACAUGAGGAUCACCCAUGUAGAAAUAUGGGAGGAUAUACAGAGACGAGAGUCAAAGUAGAAGGCCUAGAAG [77%, Mat - Mod of Eli - With 4 more G's]  32.1 nM
12. AAAAAACAUGAGGAUCACCCAUGUAAAAAAAACACAGGAUAUCCCUUUUUAAAAAAAAAAGGAGAAGGGUGAAAAA [Nob's Hobby 6 - Jieux - Same State 1]  29.8 nM
13. AACAAUCUAUCUGAGGAUAUCAUAAAAAAGACAUGAGGAUCACCCAUGUAGCAGGAAACUGCAUAUGAGAAGGCAGAUAGAUUGA [SS2: 1122]  29.6 nM
14. AUCAGGAAGAGAGAGGAUAUCCAAAGGAAAACAUGAGGAUCACCCAUGUAAAAGGUAGGAAAUUGGGAGAAGGCUCAAGAGAGAG [salish99-ss2-093]  26.4 nM
15. AUAACACAUGAGGAUCACCCAUGUAGAAACAAGUCAGGAUAUGCAACCUCAUGAAAUAAAGCAGAAGGGACAAUAA [SS 1 Tesla 4]  26.4 nM
16. GAAAAACAUGAGGAUCACCCAUGUAGAGAUAUGGGAGGAUAUACAAAGACGAAAGUCGAGGUAGAAGGCCUAAAAG [Garnet 55]  24.4 nM
17. GAUAGACAUGAGGAUCACCCAUGUAGAAUUAUGGGAGGAUAUACAAAGACGAGAGUCAGAGUAGAAGGCCUAGGAC [salish99-ss1-159]  23.6 nM
18. AAAAUAAAAUAAAAGGAUAUAAAAAUAUAUACAUGAGGAUCACCCAUGUAUAUAAAAAUAAAAUAAAAGAAGGAAUAAAAAUAAA [SS2 507: MS2 7]  22.7 nM
19. GUAUAUAUAAGACAGGAUAUCCGAAAGUAAACAUGAGGAUCACCCAUGUAAAGAAAGAAACUCAUGGAGAAGGGUCAAUAUAUAC [Mat - Same State 2 - Tesla mod - D83]  22.2 nM
20. GAAAAACAUGAGGAUCACCCAUGUGGAAAUAUGGGAGGAUAUACUAAGACGAAAGUCGAUGUAGAAGGCCUAAAAG [Same State 1.4e (Mat - Mod of Eli - )]  22 nM
21. AUAUGAUCAUGUGAGGAUAUCCAUAAUAAAACAUGAGGAUCACCCAUGUAUAGAUAAUAAUAAUGGGAGAAGGCACAUGAUCAAU [SS 2 M41]  21.6 nM
22. AGAAAACAUGAGGAUCACCCAUGUAGAAAUAUGGGAGGAUAUACGAGGACGAAAGUCAAAGUAGAAGGCCUAAAGA [Mat - Same State 1 - Meechl mod - D125]  21 nM
23. GAAAAACAUGAGGAUCACCCAUGUCGAGAGAGACGAGGAUAUCUGAAUCGAUUAGAUUACGGAGAAGGCGUGAAAG [Mat - Same State 1 - Hyphema mod - D96]  20.3 nM
24. AAAAGACAUGAGGAUCACCCAUGUGAAAACAUACAAGGAUAUGUGUGGAAACCGUACUAUACAGAAGGUGUAUGUC [SS1 - 85]  19.7 nM
25. AGACAUAAAAGAGAGGAUAUCCAAAAGAAAACAUGAGGAUCACCCAUGUAAAAGAAAAUAAAAUGGGAGAAGGCUCACAUACAGA [Topaz 35]  19 nM
26. AGGAAACAUGAGGAUCACCCAUGUAAAAAUAACACAGGAUAUGGAAACACGAAAGUGAAACCAGAAGGGUGAAAAG [77%, Mat - Mod of Eli, 16]  17.8 nM
27. GGAACUACAGAUCAGGAUAUGUUUGGGUAAACAUGAGGAUCACCCAUGUGCACCCGAUACACAGGACAGAAGGGAUAACGUGGGA [Maondior]  15.5 nM
28. AGCACGUGAUUGGAGGAUAUGUAGUAAGCAACAUGAGGAUCACCCAUGUCUGAGGCUGAAAACCAGCAGAAGGCCGAUACAACCA [SS2-1.6]  15.3 nM
29. ACCCGCAGCCGUCAGGAUAUGUUCGCGUCAACAUGAGGAUCACCCAUGUGUGACAAGAAGUACACGCAGAAGGGAUCAAUGCGGG [Bienri]  13.7 nM
30. AAAAAACAAAGAGAGGAUAUCCUAAAAAAAACAUGAGGAUCACCCAUGUAAAGAAAUUUAAAAUGGGAGAAGGCUCUUUGAAAAA [Same State 2.6d ( Helter Skelter 1)]  12.4 nM
31. AAAAAAAAAGUAGAGGAUAUCCAAAUGGCUACAUGAGGAUCACCCAUGUGAAGAAAAGCACAUGAGGAGAAGGCUACAAAAAAAAA [Blender bender]  12.1 nM
32. AAAGAAAAACUAGAGGAUAUCUGAAUGGUAACAUGAGGAUCACCCAUGUGAAGAAAGGAACAUGAGGAGAAGGCUAGAAGAAAAA [JL Nando mod 17]  11.4 nM
33. AAGAAACAUGAGGAUCACCCAUGUACCCAAAAGGGAGGAUAUGGAAAAGAAAGAAAGAAACCAGAAGGCCCAUGAA [Artabanus the Hyrcanian]  10.8 nM
